Source: patent US20240052029A1 (BIOHENG THERAPEUTICS, published 2024)
Changes are numbered by the printed parent chain.

B1: 6V8 anti-ROR1 humanized scFv, as chimeric antigen receptor on CAR-T cells (scFv)
scFv: ETTLTQSPATLSVSPGEKVIIRCITSTDIDEDMNWYQQKPGQPPKLLISEGNTLRPGVPSRFSGSGSGTDFTLTISSLQPEDVATYYCLQSNNMPLTFGAGTKLELKGGGGSGGGGSGGGGSQVQLQESGPGLVKPSQTLSLTCTVTAYSITSDYAWNWIRQFPGNKLEWMGYISYSGFTRYNPSLKSRISITRDTSKNQFFLKLNFVTTEDTATYYCARGEITYYFDYWGQGTTLTVSSESKYGPPCPPCPIYIWAPLAGTCGVLLLSLVITLYCKRGRKKLLYIFKQPFMRPVQTTQEEDGCSCRFPEEEEGGCELRVKFSRSADAPAYQQGQNQLYNELNLGRREEYDVLDKRRGRDPEMGGKPRRKNPQEGLYNELQKDKMAEAYSEIGMKGERRRGKGHDGLYQGLSTATKDTYDALHMQALPPR
notes: Humanized from murine ROR1-4
B2: 6V10 anti-ROR1 humanized scFv, as chimeric antigen receptor on CAR-T cells (scFv)
scFv: B1 scFv with K18R, V19A
notes: Humanized from murine ROR1-4
B3: 6V11 anti-ROR1 humanized scFv, as chimeric antigen receptor on CAR-T cells (scFv)
scFv: B1 scFv with K18R, V19A, T147S, M171I, F201Y, F202Y, K204Q, F207S
notes: Humanized from murine ROR1-4
B4: 6V12 anti-ROR1 humanized scFv, as chimeric antigen receptor on CAR-T cells (scFv)
scFv: B1 scFv with G64S
notes: Humanized from murine ROR1-4
B5: 6V13 anti-ROR1 humanized scFv, as chimeric antigen receptor on CAR-T cells (scFv)
scFv: B1 scFv with G64S, T147S, M171I, F201Y, F202Y, K204Q, F207S
notes: Humanized from murine ROR1-4
B6: 6V9 anti-ROR1 humanized scFv, as chimeric antigen receptor on CAR-T cells (scFv)
scFv: B1 scFv with T147S, M171I, F201Y, F202Y, K204Q, F207S
notes: Humanized from murine ROR1-4

Molecular target: T1, ROR1-hFc (Acrobio brand, Cat. No. R01-H5250) protein (UniProt Q01973 30-403)
T1 construct: Bought reagent; not shown: hFc (human Fc, detected with anti-human IgG Fc)
T1 sequence (Q01973 30-403): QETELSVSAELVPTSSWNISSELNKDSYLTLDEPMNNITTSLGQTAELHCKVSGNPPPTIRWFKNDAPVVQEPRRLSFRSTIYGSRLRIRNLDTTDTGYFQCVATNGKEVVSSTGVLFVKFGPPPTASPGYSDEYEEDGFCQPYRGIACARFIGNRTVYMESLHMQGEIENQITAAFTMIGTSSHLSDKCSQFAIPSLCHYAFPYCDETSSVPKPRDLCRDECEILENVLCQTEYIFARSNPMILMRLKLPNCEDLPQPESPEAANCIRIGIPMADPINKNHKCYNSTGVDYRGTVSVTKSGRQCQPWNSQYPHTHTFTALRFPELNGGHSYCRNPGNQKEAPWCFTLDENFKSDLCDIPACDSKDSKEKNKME
Assay: flow cytometry: CAR-T cells stained with ROR1-hFc, then PE anti-human IgG Fc
Experimental: After culturing at 37° C. and 5% CO₂ for 11 days, the above CAR-T cells, ROR1-4 CAR-T-2 cells (replacing the CD8α hinge region in the ROR1-4 CAR-T cells with the IgG4 hinge region) and Wild-type T cells (NT, used as negative control) were incubated with ROR1-hFc (Acrobio brand, Cat. No. R01-H5250) protein for 45 minutes, and after washing, PE anti-human IgG Fc Antibody (Biolegend brand, Cat. No. 410708) was added to incubate for 30 minutes. The expression level of the anti-ROR1 single chain antibody on the CAR-T cells was detected by flow cytometry, and the results are shown in FIG. 4.

Binding result, binds:
B1
B2
B3
B4
B5
B6
